In patent publication US20160208004A1:
Where a chain is given by its changes, count along the chain named. Each block holds one binder with its values, some of them ahead of it.

Target: human IL-17RA (human) (UniProt Q96F46)
Experiment: cell-based or functional assay

% Inhib. of IL-5 production, TSLP treated human PBMC + IL-2 + IL-25, Expt. 1: 68%
% Inhib. of IL-5 production, TSLP treated human PBMC + IL-2 + IL-25, Expt. 2: 76%
% Inhibition of IL-5 production, TSLP treated human PBMC + IL-2 + IL-25; inhibitor 0.1 micrograms/mL: 12%
% Inhibition of IL-5 production, TSLP treated human PBMC + IL-2 + IL-25; inhibitor 1.0 micrograms/mL: 54%
B1: 3.1404 (antibody, from a related filing, V domains shown)
VH: QVQLVQSGAEVKKPGASVKVSCKASGYTFTRYGISWVRQAPGQGLEWMGWISTYSGNTNYAQKLQGRVTMTTDTSTSTAYMELRSLRSDDTAVYYCARRQLYFDYWGQGTLVTVSS
VL: EIVMTQSPATLSVSPGERATLSCRASQSVSSNLAWFQQKPGQAPRPLIYDASTRATGVPARFSGSGSGTDFTLTISSLQSEDFAVYYCQQYDNWPLTFGGGTKVEIK

% Inhib. of IL-5 production, TSLP treated human PBMC + IL-2 + IL-25, Expt. 1: 90%
% Inhib. of IL-5 production, TSLP treated human PBMC + IL-2 + IL-25, Expt. 2: 75%
% Inhibition of IL-5 production, TSLP treated human PBMC + IL-2 + IL-25; inhibitor 10 micrograms/mL: 100%
B2: 3.381 (antibody, from a related filing, V domains shown)
VH: B1 VH with T53A
VL: B1 VL with A19V, T56A, V58I
